What all share (test): pull-down; partially purified recombinant proteins mixed and incubated overnight at 4°C, GSTrap columns, washed with 50 mM Tris pH 7.5, 150 mM NaCl, eluted with 10 mM reduced glutathione; Western blot with anti-His6 antibody, bands quantified with Image J, pulldown by GST-CD-Nef set to 100%
A general note: A western blot detects proteins with antibodies after separation by electrophoresis.

The target of test [1] is GST-MHC-I CD-Nef (human | HIV-1) (UniProt P03406).
Test [2] concerns the target GST-CD-Nef E62-65A,LL/AA (human | HIV-1) (UniProt P03406).
Test [3] addresses GST-CD-Nef M20A,LL/AA (human | HIV-1) (UniProt P03406).
Test [4] addresses GST-MHC-I CD-Nef LL/AA (human | HIV-1) (UniProt P03406).
The target in test [5] is GST-CD-Nef P78A,LL/AA (human | HIV-1) (UniProt P03406).
Test [6] deals with GST-CD(Y320A)-NefLL/AA (human | HIV-1) (UniProt P03406).

Our source for the pulldown efficiency (% of the pulldown of wild-type μ1 by GST-CD-Nef) and pulldown efficiency (% of the pulldown of μ1 by GST-CD-Nef) values is PMC2791223.

“truncated μ1 mutant F172A/D174S (domain or fragment)”: the pulldown efficiency (% of the pulldown of wild-type μ1 by GST-CD-Nef) in test [1] is 57%.
Consider “truncated μ1 mutant V392A/L395A (domain or fragment)”, for which the pulldown efficiency (% of the pulldown of wild-type μ1 by GST-CD-Nef) in test [1] was 24%.

B1: μ121 (AP-1 medium subunit μ1, residues 121–423) (domain or fragment)
chain: GYPQTTDSKILQEYITQEGHKLETGAPRPPATVTNAVSWRSEGIKYRKNEVFLDVIEAVNLLVSANGNVLRSEIVGSIKMRVFLSGMPELRLGLNDKVLFDNTGRGKSKSVELEDVKFHQCVRLSRFENDRTISFIPPDGEFELMSYRLNTHVKPLIWIESVIEKHSHSRIEYMVKAKSQFKRRSTANNVEIHIPVPNDADSPKFKTTVGSVKWVPENSEIVWSVKSFPGGKEYLMRAHFGLPSVEAEDKEGKPPISVKFEIPYFTTSGIQVRYLKIIEKSGYQALPWVRYITQNGDYQLRTQ
B1: the pulldown efficiency (% of the pulldown of μ1 by GST-CD-Nef) in test [2] amounted to 30%; in test [3], 53%; in test [4], 77%; in test [5] it was 19%; in test [6], 16%.
